Consider 16 proteins from US10358663B2, “Method of production of 2,4-dihydroxybutyric acid” (ADISSEO FRANCE S.A.S., priority 2010, dated 2019).

Assay type in all cases: biochemical, Escherichia coli
Substrate in data set [1]: N[C@@H](CC(=O)O)C(=O)O
Put plainly: Aspartate kinase assay (ADP production coupled to NADH oxidation), His-tagged wild-type LysC. To be noted: other: His-tagged LysC, Eadie and Hofstee, pH 7.5, 30° C. On the procedure:
(§1) Enzymatic assay: Aspartate or malate kinase activities were assayed by coupling ADP production in the kinase reactions to NADH oxidation in the presence of phosphoenolpyruvate, pyruvate kinase, and lactate dehydrogenase.
(§2) Aspartate (or Malate) Kinase aspartate (or malate)+ATP→4-phospho-(L)-aspartate (or 4-phospho-(L)-malate)+ADP
(§3) The assay mixture contained 50 mM Hepes (pH 7.5), 50 mM KCl, 5 mM MgCl2, 0.24 mM NADH, 0.96 mM ATP, 0.96 mM PEP, 9 μg/mL of lactate dehydrogenase (Sigma, L2500), 12.4 μg/mL pyruvate kinase (Sigma, P1506), and appropriate amounts of purified aspartate (malate) kinase. Reactions were started by adding 50 mM (L)-aspartate or (L)-malate. Enzymatic assays were carried out at 30° C. in 96-well flat bottomed microtiter plates in a final volume of 250 μL. The reactions were followed by the characteristic absorption of NADH at 340 nm in a microplate reader (BioRad 680XR).
Maximum activities for LysC and Hom3 on aspartate were 4.5 μmol/(min*mgprot) and 1.6 μmol/(min*mgprot), respectively. The Km value for aspartate was estimated with the method of Eadie and Hofstee by measuring initial reaction rates (v) at different substrate concentrations (c) and by extracting the slope of the v versus v/c plot. […]

Substrate in data set [2]: O=C(O)C[C@H](O)C(=O)O
Put plainly: Malate kinase assay, LysC E119N. To be noted: other: malate, pH 7.5, 30° C., average of at least two independent experiments. The protocol:
as §1, §2, §3
(§4) Mutant enzymes were expressed, purified and tested for aspartate and malate kinase activity as described in Example 1.

Substrate in data set [3]: O=C(O)C[C@H](O)C(=O)O
Put plainly: Malate kinase assay, LysC E119T. Conditions: other: malate, pH 7.5, 30° C., average of at least two independent experiments. The protocol:
as §1, §2, §3, §4

Substrate in data set [4]: O=C(O)C[C@H](O)C(=O)O
Put plainly: Malate kinase assay, LysC E119S. To be noted: other: malate, pH 7.5, 30° C., average of at least two independent experiments. On the procedure: as §1, §2, §3, §4

Substrate in data set [5]: O=C(O)C[C@H](O)C(=O)O
Put plainly: Malate kinase assay, LysC E119V. To be noted: other: malate, pH 7.5, 30° C., average of at least two independent experiments. The protocol:
as §1, §2, §3, §4

Substrate in data set [6]: O=C(O)C[C@H](O)C(=O)O
Put plainly: Malate kinase assay, LysC E119C. To be noted: other: malate, pH 7.5, 30° C., average of at least two independent experiments. On the procedure: as §1, §2, §3, §4

Substrate in data set [7]: O=C(O)C[C@H](O)C(=O)O
Put plainly: Malate kinase assay, LysC E119G. Conditions: other: malate, pH 7.5, 30° C., average of at least two independent experiments. On the procedure:
as §1, §2, §3, §4

Substrate in data set [8]: O=C(O)C[C@H](O)C(=O)O
Put plainly: Malate kinase assay, LysC E119Q. Conditions: other: malate, pH 7.5, 30° C., average of at least two independent experiments. On the procedure:
as §1, §2, §3, §4

Substrate in data set [9]: O=C(O)C[C@H](O)C(=O)O
Put plainly: Malate kinase assay, LysC E119P. To be noted: other: malate, pH 7.5, 30° C., average of at least two independent experiments. The protocol:
as §1, §2, §3, §4

Substrate in data set [10]: O=CC[C@H](O)C(=O)O
Put plainly: Malate semialdehyde dehydrogenase assay, Asd E241G. To be noted: other: malate semialdehyde, reverse biosynthetic direction, pH 9, 0.25 mM NADP, 30° C. On the procedure: (§5) Enzymatic assay: Aspartate or malate semialdehyde dehydrogenase activities were assayed in the reverse biosynthetic direction by following the reduction of NADP during the oxidation of aspartate or malate semialdehyde to 4-phospho-(L)-aspartate or 4-phospho-(L)-malate, respectively (Roberts et al., 2003). (L)-aspartate semialdehyde (or (L)-malate semialdehyde)+NADP+Pi→4-phospho-(L)-aspartate (or 4-phospho-(L)-malate)+NADPH
(§6) The assay mixture contained 200 mM Hepes (pH 9), 50 mM K2HPO4, 0.25 mM NADP. Reactions were started by adding (L)-aspartate semialdehyde or (L)-malate semialdehyde. (L)-Aspartate semialdehyde was added in the form of L-aspartic acid β-semialdehyde hydrate trifluoroacetate (maintained at pH3 to prevent degradation) which is a suitable substrate for enzymatic tests of homoserine dehydrogenase and aspartate semialdehyde dehysrogenase (Roberts et al., 2003). Unstable malate semialdehyde was produced freshly prior to the enzymatic tests by the deprotection of the stable malate semialdehyde derivative 2-[(4S)-2,2-dimethyl-5-oxo-1,3-dioxolan-4-yl]acetaldehyde (DMODA). […]
(§7) Enzymatic assays were carried out in 96-well flat bottomed microtiter plates in a final volume of 250 μL at 30° C. The reactions were followed by the characteristic absorption of NADPH at 340 nm in a microplate reader (BioRad 680XR).

Substrate in data set [11]: O=CC[C@H](O)C(=O)O
Put plainly: Malate semialdehyde dehydrogenase assay, Asd E241M. Conditions: other: malate semialdehyde, reverse biosynthetic direction, pH 9, 0.25 mM NADP, 30° C. On the procedure: as §5, §6, §7

Substrate in data set [12]: O=CC[C@H](O)C(=O)O
Put plainly: Malate semialdehyde dehydrogenase assay, Asd E241Q. Conditions: other: malate semialdehyde, reverse biosynthetic direction, pH 9, 0.25 mM NADP, 30° C. The protocol:
as §5, §6, §7

Substrate in data set [13]: O=CC[C@H](O)C(=O)O
Put plainly: Malate semialdehyde dehydrogenase assay, Asd E241I. Conditions: other: malate semialdehyde, reverse biosynthetic direction, pH 9, 0.25 mM NADP, 30° C. The protocol:
as §5, §6, §7

Substrate in data set [14]: O=CC[C@H](O)C(=O)O
Put plainly: Malate semialdehyde dehydrogenase assay, Asd E241C. To be noted: other: malate semialdehyde, reverse biosynthetic direction, pH 9, 0.25 mM NADP, 30° C. On the procedure: as §5, §6, §7

Substrate in data set [15]: O=CC[C@H](O)C(=O)O
Put plainly: Malate semialdehyde dehydrogenase assay, Asd E241A. To be noted: other: malate semialdehyde, reverse biosynthetic direction, pH 9, 0.25 mM NADP, 30° C. The protocol: as §5, §6, §7

Substrate in data set [16]: O=CC[C@H](O)C(=O)O
Put plainly: Malate semialdehyde dehydrogenase assay, Asd E241H. To be noted: other: malate semialdehyde, reverse biosynthetic direction, pH 9, 0.25 mM NADP, 30° C. On the procedure:
as §5, §6, §7

Residue numbers refer to the chain shown, from its start. Names and notes keep the numbering of the source.

B1: E. coli aspartate kinase III LysC, wild type, His-tagged, SEQ ID NO: 4 (Escherichia coli K-12) (protein)
chain: MSEIVVSKFGGTSVADFDAMNRSADIVLSDANVRLVVLSASAGITNLLVALAEGLEPGERFEKLDAIRNIQFAILERLRYPNVIREEIERLLENITVLAEAAALATSPALTDELVSHGELMSTLLFVEILRERDVQAQWFDVRKVMRTNDRFGRAEPDIAALAELAALQLLPRLNEGLVITQGFIGSENKGRTTTLGRGGSDYTAALLAEALHASRVDIWTDVPGIYTTDPRVVSAAKRIDEIAFAEAAEMATFGAKVLHPATLLPAVRSDIPVFVGSSKDPRAGGTLVCNKTENPPLFRALALRRNQTLLTLHSLNMLHSRGFLAEVFGILARHNISVDLITTSEVSVALTLDTTGSTSTGDTLLTQSLLMELSALCRVEVEEGLALVALIGNDLSKACGVGKEVFGVLEPFNIRMICYGASSHNLCFLVPGEDAEQVVQKLHSNLFE
B1: the Km – broadly, the concentration of substrate that gives half-maximal velocity – in data set [1] came to 0.6 mM.

B2: E. coli aspartate kinase LysC variant E119N, SEQ ID NO: 16 (Escherichia coli K-12; E119N) (protein)
chain: B1 chain with E119N
For B2, in data set [2], the Km is listed as 27.1 mM and the maximum rate (Vmax) (usually the rate approached at saturating substrate) amounted to 0.13 µmol/mg/min.

B3: E. coli aspartate kinase LysC variant E119T, SEQ ID NO: 24 (Escherichia coli K-12; E119T) (protein)
chain: B1 chain with E119T
Regarding B3, in [3], the Km was found to be 26.8 mM and the Vmax came to 0.33 µmol/mg/min.

B4: E. coli aspartate kinase LysC variant E119S, SEQ ID NO: 22 (Escherichia coli K-12; E119S) (protein)
chain: B1 chain with E119S
Regarding B4, in [4], the Km was 15.7 mM and the Vmax stood at 0.83 µmol/mg/min.

B5: E. coli aspartate kinase LysC variant E119V, SEQ ID NO: 26 (Escherichia coli K-12; E119V) (protein)
chain: B1 chain with E119V
For the protein B5, in data set [5], the Km was found to be 39.7 mM and the maximal velocity (Vmax) was found to be 0.29 µmol/mg/min.

B6: E. coli aspartate kinase LysC variant E119C, SEQ ID NO: 12 (Escherichia coli K-12; E119C) (protein)
chain: B1 chain with E119C
On to B6, for which, in [6], the Km amounted to 19.7 mM and the maximum rate (Vmax) was found to be 0.97 µmol/mg/min.

B7: E. coli aspartate kinase LysC variant E119G, SEQ ID NO: 14 (Escherichia coli K-12; E119G) (protein)
chain: B1 chain with E119G
Regarding B7, in data set [7], the Michaelis-Menten constant (Km) turned out to be 16.0 mM and the Vmax is 0.49 µmol/mg/min.

B8: E. coli aspartate kinase LysC variant E119Q, SEQ ID NO: 20 (Escherichia coli K-12; E119Q) (protein)
chain: B1 chain with E119Q
Turning to B8, in [8], the Michaelis constant (Km) was 39.9 mM and the Vmax came to 0.01 µmol/mg/min.

B9: E. coli aspartate kinase LysC variant E119P, SEQ ID NO: 18 (Escherichia coli K-12; E119P) (protein)
chain: B1 chain with E119P
As to B9, in data set [9], the Km was determined as 19.0 mM and the maximum rate (Vmax) was 0.71 µmol/mg/min.

B10: E. coli aspartate semialdehyde dehydrogenase Asd variant E241G, SEQ ID NO: 58 (Escherichia coli K-12; E241G) (protein)
chain: MKNVGFIGWRGMVGSVLMQRMVEERDFDAIRPVFFSTSQLGQAAPSFGGTTGTLQDAFDLEALKALDIIVTCQGGDYTNEIYPKLRESGWQGYWIDAASSLRMKDDAIIILDPVNQDVITDGLNNGIRTFVGGNCTVSLMLMSLGGLFANDLVDWVSVATYQAASGGGARHMRELLTQMGHLYGHVADELATPSSAILDIERKVTTLTRSGELPVDNFGVPLAGSLIPWIDKQLDNGQSRGEWKGQAETNKILNTSSVIPVDGLCVRVGALRCHSQAFTIKLKKDVSIPTVEELLAAHNPWAKVVPNDREITMRELTPAAVTGTLTTPVGRLRKLNMGPEFLSAFTVGDQLLWGAAEPLRRMLRQLA
For the protein B10, in data set [10], the Km is given as 0.18 mM and the maximal velocity (Vmax) is 0.09 µmol/mg/min.

B11: E. coli aspartate semialdehyde dehydrogenase Asd variant E241M, SEQ ID NO: 64 (Escherichia coli K-12; E241M) (protein)
chain: B10 chain with G241M
For the protein B11, in data set [11], the Km stood at 0.43 mM and the Vmax was found to be 0.15 µmol/mg/min.

B12: E. coli aspartate semialdehyde dehydrogenase Asd variant E241Q, SEQ ID NO: 66 (Escherichia coli K-12; E241Q) (protein)
chain: B10 chain with G241Q
Take B12: in data set [12], the Michaelis-Menten constant (Km) came out at 0.52 mM and the Vmax turned out to be 0.39 µmol/mg/min.

B13: E. coli aspartate semialdehyde dehydrogenase Asd variant E241I, SEQ ID NO: 62 (Escherichia coli K-12; E241I) (protein)
chain: B10 chain with G241I
Consider B13, for which, in data set [13], the Michaelis-Menten constant (Km) was 0.23 mM and the Vmax stood at 0.10 µmol/mg/min.

B14: E. coli aspartate semialdehyde dehydrogenase Asd variant E241C, SEQ ID NO: 56 (Escherichia coli K-12; E241C) (protein)
chain: B10 chain with G241C
For B14, in [14], the Km is 0.5 mM and the maximum rate (Vmax) was determined as 0.18 µmol/mg/min.

B15: E. coli aspartate semialdehyde dehydrogenase Asd variant E241A, SEQ ID NO: 54 (Escherichia coli K-12; E241A) (protein)
chain: B10 chain with G241A
Consider B15, for which, in data set [15], the Michaelis-Menten constant (Km) is given as 0.378 mM and the Vmax worked out at 0.09 µmol/mg/min.

B16: E. coli aspartate semialdehyde dehydrogenase Asd variant E241H, SEQ ID NO: 60 (Escherichia coli K-12; E241H) (protein)
chain: B10 chain with G241H
As for B16, in data set [16], the Km stood at 0.8 mM and the Vmax came out at 0.10 µmol/mg/min.
